Source: paper PMC7721705 (2020)

Assays:
CXCL12 (SDF1α) [1] = target: T1, CXCL12 (SDF1α) (UniProt P48061-2 22-89); experiment: SPR; low-activity fraction (kd1)
CXCL12 (SDF1α) [2] = target: T1, CXCL12 (SDF1α); experiment: SPR; high-activity fraction (KD2, heterogeneous ligand model)
CXCL12 (SDF1α) [3] = target: T1, CXCL12 (SDF1α); experiment: SPR; high-activity fraction (kd2)
CXCL12 (SDF1α) [4] = target: T1, CXCL12 (SDF1α); experiment: SPR; low-activity fraction (KD1, heterogeneous ligand model)

T1 sequence (P48061 22-89): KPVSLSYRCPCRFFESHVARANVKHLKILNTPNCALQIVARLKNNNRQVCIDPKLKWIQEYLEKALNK

koff (CXCL12 (SDF1α) [1])	Kd (CXCL12 (SDF1α) [2])	koff (CXCL12 (SDF1α) [3])	Kd (CXCL12 (SDF1α) [4])	Binder
0.0356 s⁻¹	29 nM	0.00171 s⁻¹	1660 nM	CXCR4^QTY29 with C-terminal GSSG linker and rho1D4 tag (receptor) MEGISIYTSDNYTEEMGSGDYDSMKEPCFREENANYNKTFLPTIYSIIYQTGTVGNGLVILVMGYQKKLRSMTDKYRLHLSTADLQFVTTLPYWATDATANWYFGNFLCKAVHVIYTVNLYSSVLILAFISLDRYLAIVHATNSQRPRKLLAEKVVYVGVWTPAQLLTTPDYTFANVSEADDRYICDRFYPNDLWVVVFQFQHIMVGLILPGIVILSCYCIIISKLSHSKGHQKRKALKTTTTLIQAFFACWQPYYTGISIDSYILLEIIKQGCEFENTVHKWISTTEAQAFYHCCTNPTQYAYLGAKFKTSAQHALTSVSRGSSLKILSKGKRGGHSSVSTESESSSFHSS
0.0375 s⁻¹	56.3 nM	0.00159 s⁻¹	437 nM	native CXCR4 with C-terminal GSSG linker and rho1D4 tag (receptor) MEGISIYTSDNYTEEMGSGDYDSMKEPCFREENANFNKIFLPTIYSIIFLTGIVGNGLVILVMGYQKKLRSMTDKYRLHLSVADLLFVITLPFWAVDAVANWYFGNFLCKAVHVIYTVNLYSSVLILAFISLDRYLAIVHATNSQRPRKLLAEKVVYVGVWIPALLLTIPDFIFANVSEADDRYICDRFYPNDLWVVVFQFQHIMVGLILPGIVILSCYCIIISKLSHSKGHQKRKALKTTVILILAFFACWLPYYIGISIDSFILLEIIKQGCEFENTVHKWISITEALAFFHCCLNPILYAFLGAKFKTSAQHALTSVSRGSSLKILSKGKRGGHSSVSTESESSSFHSS
